In the Human Domainome abundance scans (Beltran et al. 2025):
± gives the uncertainty stated by the source.

B1: POU domain, class 3, transcription factor 4, residues 280 to 335; numbered along this chain, P49335 (parent)
chain: KKRTSIEVSVKGVLETHFLKCPKPAAQEISSLADSLQLEKEVVRVWFCNRRQKEKR

Variants of: B1
Assay: abundance fitness (aPCA) (normalised: wild type 0, dead -1); higher = more abundant; growth selection in yeast, the domain comes from the species named
Conditions: Homo sapiens
KKRTSIEVSVKGVLETHVLKCPKPAAQEISSLADSLQLEKEVVRVWFCNRRQKEKR [F18V] showed an abundance fitness of -0.56 ± 0.11. Variant KKRTSIEVSVKGVLETHHLKCPKPAAQEISSLADSLQLEKEVVRVWFCNRRQKEKR [F18H] has an abundance fitness of -0.251 ± 0.22. KKRTSIEVSVKGVLETHFLKCPKPAAQEISSLVDSLQLEKEVVRVWFCNRRQKEKR [A33V] showed an abundance fitness of -1.02 ± 0.24. In the case of KKRTSIEVSVKGVQETHFLKCPKPAAQEISSLADSLQLEKEVVRVWFCNRRQKEKR [L14Q], the abundance fitness is reported as -0.953 ± 0.2. Work on KKRTSIEVSVKGVLETHFLKCPKPAAQEISSLADSLQWEKEVVRVWFCNRRQKEKR [L38W] yielded an abundance fitness of -0.884 ± 0.21. KKRTSIEVSVKGVLETHFLKCPKPAAQEISSLADSLQCEKEVVRVWFCNRRQKEKR [L38C] showed an abundance fitness of -0.656 ± 0.22. Work on KKRTSIEVSVKGVLETHFWKCPKPAAQEISSLADSLQLEKEVVRVWFCNRRQKEKR [L19W] yielded an abundance fitness of -0.624 ± 0.2. In the case of KKRTSIEVSVKGVLETHFDKCPKPAAQEISSLADSLQLEKEVVRVWFCNRRQKEKR [L19D], the abundance fitness is reported as -0.363 ± 0.28. For KKRTSIEVSVKGVLETHFQKCPKPAAQEISSLADSLQLEKEVVRVWFCNRRQKEKR [L19Q], the abundance fitness was -0.045 ± 0.22. With KKRTSIEVSVKGVLETHFLKCPKPAAQEISSLADSLQLEKEVVNVWFCNRRQKEKR [R44N] the abundance fitness was 0.059 ± 0.23. KKRTSIEVSVKGVLETHFLKCPKPAAQEISSLADSLQLEKEVVEVWFCNRRQKEKR [R44E] gave an abundance fitness of 0.182 ± 0.18. KKRTSIEVSVKGVLETHFLKCPKPAAQEISSLADSLQLEKEVVSVWFCNRRQKEKR [R44S] gave an abundance fitness of -0.343 ± 0.14. KKRTSIEVSVKGVLETHFLKCPKPAAQEISSLADSLQLEKEVVRVWFCNRRQNEKR [K53N] showed an abundance fitness of -0.544 ± 0.41. For KKRTSIEVSVKGVLETHFLKCPKPAAQEISSLADSLQLEKEVVRVWFCNRRQSEKR [K53S], the abundance fitness was -0.318 ± 0.15. KKRTSIEVSVKGVLETHFLKCPKPAAQEISSLADSLVLEKEVVRVWFCNRRQKEKR [Q37V] gave an abundance fitness of -0.923 ± 0.29. For KKRTSIEVSVKGVLETHFLKCPKPAAQEISSLADSLALEKEVVRVWFCNRRQKEKR [Q37A], the abundance fitness was -0.437 ± 0.33. For KKRTSIEVSVKGVLETHFLKCPKPAAQEISSLADSLQLEAEVVRVWFCNRRQKEKR [K40A], the abundance fitness was 0.026 ± 0.15. Variant KKRTSIEVSVKGVLETHFLKCPKPAAQEISSLADSLQLECEVVRVWFCNRRQKEKR [K40C] has an abundance fitness of -0.154 ± 0.25. In the case of KKRTSIEVSVKGVLETHFLKCPKPAAHEISSLADSLQLEKEVVRVWFCNRRQKEKR [Q27H], the abundance fitness is reported as -0.074 ± 0.26. With KKRTSIEVSVKGVLETHFLKCPKPAAAEISSLADSLQLEKEVVRVWFCNRRQKEKR [Q27A] the abundance fitness was 0.078 ± 0.12. KKRTSIEVSVVGVLETHFLKCPKPAAQEISSLADSLQLEKEVVRVWFCNRRQKEKR [K11V] showed an abundance fitness of -0.117 ± 0.22. In the case of KDRTSIEVSVKGVLETHFLKCPKPAAQEISSLADSLQLEKEVVRVWFCNRRQKEKR [K2D], the abundance fitness is reported as -0.342 ± 0.26. KKRTSIEVSVKGVLETHFLKCPKPAAQEISSLADSLQLPKEVVRVWFCNRRQKEKR [E39P] gave an abundance fitness of -0.022 ± 0.17. Variant KKRTSIEVSVKGVLETHFLKCPKPAAQEISSLADSLQLTKEVVRVWFCNRRQKEKR [E39T] has an abundance fitness of -0.421 ± 0.26. In the case of KKRTSIEVSVKGVLETHFLKCPKPAAQEISSLADSLQLVKEVVRVWFCNRRQKEKR [E39V], the abundance fitness is reported as -0.565 ± 0.18. In the case of KKRTSIEVDVKGVLETHFLKCPKPAAQEISSLADSLQLEKEVVRVWFCNRRQKEKR [S9D], the abundance fitness is reported as 0.539 ± 0.28. In the case of KKRTSIEVVVKGVLETHFLKCPKPAAQEISSLADSLQLEKEVVRVWFCNRRQKEKR [S9V], the abundance fitness is reported as -0.173 ± 0.15. KKRTSIEVCVKGVLETHFLKCPKPAAQEISSLADSLQLEKEVVRVWFCNRRQKEKR [S9C] showed an abundance fitness of -0.017 ± 0.27. In the case of KKRTSIEVSVKGVLPTHFLKCPKPAAQEISSLADSLQLEKEVVRVWFCNRRQKEKR [E15P], the abundance fitness is reported as -0.659 ± 0.21. With KKRTSIEVSVKGVLGTHFLKCPKPAAQEISSLADSLQLEKEVVRVWFCNRRQKEKR [E15G] the abundance fitness was -0.881 ± 0.17. For KKRTSIEVSVKGVLTTHFLKCPKPAAQEISSLADSLQLEKEVVRVWFCNRRQKEKR [E15T], the abundance fitness was -0.82 ± 0.22. Variant KKRTSIEVSVKGVLLTHFLKCPKPAAQEISSLADSLQLEKEVVRVWFCNRRQKEKR [E15L] has an abundance fitness of -0.645 ± 0.13. For KKRTSIEVSVKGVLFTHFLKCPKPAAQEISSLADSLQLEKEVVRVWFCNRRQKEKR [E15F], the abundance fitness was -0.681 ± 0.21. For KKRTSIEVSVKGVLETHFLKCPKPAAQEISSLADSLQLEKEVVRVWFNNRRQKEKR [C48N], the abundance fitness was -0.113 ± 0.22. For KKRTSIEVSVKGVLETHFLKCPKPAAQEISSLADSLQLEKEVVRVWFCNRRQKGKR [E54G], the abundance fitness was -0.808 ± 0.16. KKRTSIEVSVKGVLETHFLKCPKPAAQEISSLADSLQLEKEVVRVWFCARRQKEKR [N49A] gave an abundance fitness of -0.373 ± 0.17. Variant KKRTSIEVSVKGVLETHFLKCPKPAAQEISVLADSLQLEKEVVRVWFCNRRQKEKR [S31V] has an abundance fitness of 0.013 ± 0.17. In the case of KKRTSIEVSVKGVLETHFLKCPKPAAQEISGLADSLQLEKEVVRVWFCNRRQKEKR [S31G], the abundance fitness is reported as -0.398 ± 0.13. With KKRTSIEVSVKGVLETHFLKCPKPAAQEISSLADSLQLEKEVVRVWFCNRLQKEKR [R51L] the abundance fitness was -0.305 ± 0.14. For KKRTSIEVSVKGVLETHFLKCPKPAAQEISSLADSLQLEKEVVRVWFCNRRQKEMR [K55M], the abundance fitness was -0.264 ± 0.26. KKRTSIEVSVKGVLETHFLKCPKPAAQEISSLADSLQLEKYVVRVWFCNRRQKEKR [E41Y] gave an abundance fitness of -0.819 ± 0.4. KKRTSIEVSVKGVLETHFLKCPKPAAQEISSLADSLQLEKDVVRVWFCNRRQKEKR [E41D] gave an abundance fitness of 0.043 ± 0.2. Variant KKRTSIEVSVKGVLETHFLKCPKPAAQEISSLADSLQLEKSVVRVWFCNRRQKEKR [E41S] has an abundance fitness of -0.368 ± 0.13. KKRTSIEVSVKGVLETHFLKCPMPAAQEISSLADSLQLEKEVVRVWFCNRRQKEKR [K23M] showed an abundance fitness of 0.149 ± 0.18. KKRTSIEVSVKGVLETHFLKCPWPAAQEISSLADSLQLEKEVVRVWFCNRRQKEKR [K23W] gave an abundance fitness of 0.037 ± 0.18. With KKRTSIEVSVKGVLETHFLKCPKPAAQEISSLAYSLQLEKEVVRVWFCNRRQKEKR [D34Y] the abundance fitness was -0.793 ± 0.31. KKRTSIEVSVKGVLETHFLKCPKPAAQEISSLACSLQLEKEVVRVWFCNRRQKEKR [D34C] showed an abundance fitness of -0.531 ± 0.37.
